Laboratory results taken from patent US11278600B2, “Human alpha-galactosidase variants” (Codexis, Inc., priority 2014, dated 2022).

Assays:
Assay type in all cases: biochemical
[1] = HTP-analysis of supernatants pretreated with base (MUGal hydrolysis); details: challenge at pH 7.6; activity of the variant/activity of Rd2BB (SEQ ID NO: 10); yeast culture supernatant
Procedure, shortened: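 Fluorescence of released 4-MU (Ex 355 nm, Em 448 nm) after carbonate quench reports MUGal hydrolysis by GLA variants secreted from INVSc1 yeast. Before the acidic (pH 4.3-4.8) 30-180 min reaction at 37° C, supernatants had been pre-incubated at pH 7.0-9.7 for 1-18 h at 37° C.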

[2] = HTP-analysis of supernatants pretreated with acid (MUGal hydrolysis); details: challenge at pH 4.2; activity of the variant/activity of Rd2BB (SEQ ID NO: 10); yeast culture supernatant
Procedure, shortened: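 Fluorescence of MUGal hydrolysis (Ex. 355 nm, Em. 448 nm) is read after sodium carbonate quench. The enzyme source is INVSc1 yeast culture supernatant, first exposed to pH 3.3-4.3 McIlvaine buffer at 37° C. for 1-3 h, then reacted at pH 4.8 for 30-180 minutes.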

[3] = HTP-analysis of yeast culture supernatants, no challenge (MUGal hydrolysis); details: activity of the variant/activity of Rd2BB (SEQ ID NO: 10), yeast culture supernatant
Procedure, shortened: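 GLA variants were expressed in INVSc1 yeast grown in SD-Ura broth with glucose at 30° C., and culture supernatants were collected after 66-84 h. Supernatant was mixed with McIlvaine buffer pH 4.8 and MUGal (2 mM stock) in 50 mM citrate, 200 mM KCl, pH 4.6, incubated at 37° C. for 30-180 minutes, then quenched with sodium carbonate.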

[4] = HTP-analysis of supernatants pretreated with bovine serum (MUGal hydrolysis); details: activity of the variant/activity of Rd2BB (SEQ ID NO: 10), yeast culture supernatant
Procedure, shortened: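 Yeast INVSc1 culture supernatants containing secreted GLA variants were mixed with bovine serum (20:80) and held 1 h at 37° C. Serum-treated samples then reacted with MUGal (4 mM stock) in citrate/McIlvaine buffer (pH 4.3/4.8) for 180 min at 37° C., were quenched with sodium carbonate, and read by fluorescence (Ex 355, Em 448 nm).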

| Molecule | Relative Activity of GLA Variants After Challenge at pH 7.6 [1] | Relative Activity of GLA Variants After Challenge at pH 4.2 [2] | Relative Activity of GLA Variants After No Challenge (NC) [3] | Relative Activity of GLA Variants After Challenge with Serum [4] |
| --- | --- | --- | --- | --- |
| 258 (protein, Synthetic Polypeptide sequence of Variant No. 258 of mature Human GLA) LDNGLARTPTMGWLHWERFMCNLDCQEEPDSCISEKLFMEMAELMVSEGWKDAGYEYLCIDDCWMAPQRDSEGRLQADPQRFPHGIRQLANYVHSKGLKFGIYADVGNKTCAGFPGSFGYYDIDAQTFADWGVDLLKFDGCYCDSLENLADGYKHMSLALNRTGRSIVYSCEWPLYMWPFQKPNYTEIRQYCNHWRNFADIDDSWASVKSILDWTSFNQETIVDVAGPGGWNDPDMLVIGNFGLSWNQQVTQMALWAIMAAPLFMSNDLRHISPQAKALLQDKDVIAINQDPLGKQGYQLRKGDNFEVWERPLSGLAWAVAIINRQEIGGPRSYTIAVASLGDGVACNPACFITQLLPVKRKLGFYEWTSRLRSHVNPTGTVLLQLENTMQMSLKDLL | +++ (+++ = >2.5 relative activity over Rd2BB (SEQ ID NO: 10)) | ++ (++ = 1.5 to 2.5 relative activity over Rd2BB (SEQ ID NO: 10)) | +++ (+++ = >2.5 relative activity over Rd2BB (SEQ ID NO: 10)) | ++ (++ = 1.5 to 2.5 relative activity over Rd2BB (SEQ ID NO: 10)) |
| 260 (protein, Synthetic Polypeptide sequence of Variant No. 260 of mature Human GLA) LDNGLARTPTMGWLHWERFMCNLDCQEEPDSCISEKLFMEMAELMVSEGWKDAGYEYLCIDDCWMAPQRDSEGRLQADPQRFPHGIRQLANYVHSKGLKFGIYADVGNKTCAGFPGSFGYYDIDAQTFADWGVDLLKFDGCYCDSLENLADGYKHMSLALNRTGRSIVYSCEWPLYMWPFQKPNYTEIRQYCNHWRNFADIDDSWASIKSILDWTSFNQERIVDVAGPGGWNDPDMLVIGNFGLSWDQQVTQMALWAIMAAPLFMSNDLRHISPQAKALLQDKDVIAINQDPLGKQGYQLRQGDNFEVWERPLSGLAWAVAMINRQEIGGPRSYTIAVASLGKGVACNPACFITQLLPVKRKLGLYEWTSRLKSHVNPTGTVLLQLENTMQMSLKDLL | + (+ = 0.5 to 1.5 relative activity over Rd2BB (SEQ ID NO: 10)) | + (+ = 0.5 to 1.5 relative activity over Rd2BB (SEQ ID NO: 10)) | + (+ = 0.5 to 1.5 relative activity over Rd2BB (SEQ ID NO: 10)) | + (+ = 0.5 to 1.5 relative activity over Rd2BB (SEQ ID NO: 10)) |
| 259 (protein, Synthetic Polypeptide sequence of Variant No. 259 of mature Human GLA) LDNGLARTPTMGWLHWERFMCNLDCQEEPDSCISEKLFMEMAELMVSEGWKDAGYEYLCIDDCWMAPQRDSEGRLQADPQRFPHGIRQLANYVHSKGLKFGIYADVGNKTCAGFPGSFGYYDIDAQTFADWGVDLLKFDGCYCDSLENLADGYKHMSLALNRTGRSIVYSCEWPLYMWPFQKPNYTEIRQYCNHWRNFADIDDSWASIKSILDWTSFNQERIVDVAGPGGWNDPDMLVIGNFGLSWNQQVTQMALWAIMAAPLFMSNDLRHISPQAKALLQDKDVIAINQDPLGKQGYQLRQGDNFEVWERPLSGLAWAVAVINRQEIGGPRSYTIAVASLGKGVACNPACFITQLLPVKRKLGLYEWTSRLKSHVNPTGTVLLQLENTMQMSLKDLL | + (+ = 0.5 to 1.5 relative activity over Rd2BB (SEQ ID NO: 10)) | + (+ = 0.5 to 1.5 relative activity over Rd2BB (SEQ ID NO: 10)) | + (+ = 0.5 to 1.5 relative activity over Rd2BB (SEQ ID NO: 10)) | + (+ = 0.5 to 1.5 relative activity over Rd2BB (SEQ ID NO: 10)) |
| 263 (protein, Synthetic Polypeptide sequence of Variant No. 263 of mature Human GLA) LDNGLARTPTMGWLHWERFMCNLDCQEEPDSCISEKLFMEMAELMVSEGWKDAGYEYLCIDDCWMAPQRDSEGRLQADPQRFPHGIRQLANYVHSKGLKFGIYADVGNKTCAGFPGSFGYYDIDAQTFADWGVDLLKFDGCYCDSLENLADGYKHMSLALNRTGRSIVYSCEWPLYMWPFQKPNYTEIRQYCNHWRNFADIDDSWASIKSILDWTSFNQEKIVDVAGPGGWNDPDMLVIGNFGLSWDQQVTQMALWAIMAAPLFMSNDLRHISPQAKALLQDKDVIAINQDPLGKQGYQLRKGDNFEVWERPLSGLAWAVAVINRQEIGGPRSYTIAVASLGKGVACNPACFITQLLPVKRKLGFYEWTSRLRSHVNPTGTVLLQLENTMQMSLKDLL | ++ (++ = 1.5 to 2.5 relative activity over Rd2BB (SEQ ID NO: 10)) | ++ (++ = 1.5 to 2.5 relative activity over Rd2BB (SEQ ID NO: 10)) | + (+ = 0.5 to 1.5 relative activity over Rd2BB (SEQ ID NO: 10)) | +++ (+++ = >2.5 relative activity over Rd2BB (SEQ ID NO: 10)) |
| 261 (protein, Synthetic Polypeptide sequence of Variant No. 261 of mature Human GLA) LDNGLARTPTMGWLHWERFMCNLDCQEEPDSCISEKLFMEMAELMVSEGWKDAGYEYLCIDDCWMAPQRDSEGRLQADPQRFPHGIRQLANYVHSKGLKFGIYADVGNKTCAGFPGSFGYYDIDAQTFADWGVDLLKFDGCYCDSLENLADGYKHMSLALNRTGRSIVYSCEWPLYMWPFQKPNYTEIRQYCNHWRNFADIDDSWASIKSILDWTSFNQEKIVDVAGPGGWNDPDMLVIGNFGLSWDQQVTQMALWAIMAAPLFMSNDLRHISPQAKALLQDKDVIAINQDPLGKQGYQLRQGDNFEVWERPLSGLAWAVAVINRQEIGGPRSYTIAVASLGDGVACNPACFITQLLPVKRKLGFYEWTSRLRSHVNPTGTVLLQLENTMQMSLKDLL | ++ (++ = 1.5 to 2.5 relative activity over Rd2BB (SEQ ID NO: 10)) | ++ (++ = 1.5 to 2.5 relative activity over Rd2BB (SEQ ID NO: 10)) | ++ (++ = 1.5 to 2.5 relative activity over Rd2BB (SEQ ID NO: 10)) | + (+ = 0.5 to 1.5 relative activity over Rd2BB (SEQ ID NO: 10)) |
| 264 (protein, Synthetic Polypeptide sequence of Variant No. 264 of mature Human GLA) LDNGLARTPTMGWLHWERFMCNLDCQEEPDSCISEKLFMEMAELMVSEGWKDAGYEYLCIDDCWMAPQRDSEGRLQADPQRFPHGIRQLANYVHSKGLKFGIYADVGNKTCAGFPGSFGYYDIDAQTFADWGVDLLKFDGCYCDSLENLADGYKHMSLALNRTGRSIVYSCEWPLYMWPFQKPNYTEIRQYCNHWRNFADIDDSWASIKSILDWTSFNQEKIVDVAGPGGWNDPDMLVIGNFGLSWDQQVTQMALWAIMAAPLFMSNDLRHISPQAKALLQDKDVIAINQDPLGKQGYQLRKGDNFEVWERPLSGLAWAVAVINRQEIGGPRSYTIAVASLGDGVACNPACFITQLLPVKRKLGFYEWTSRLKSHVNPTGTVLLQLENTMQMSLKDLL | +++ (+++ = >2.5 relative activity over Rd2BB (SEQ ID NO: 10)) | ++ (++ = 1.5 to 2.5 relative activity over Rd2BB (SEQ ID NO: 10)) | ++ (++ = 1.5 to 2.5 relative activity over Rd2BB (SEQ ID NO: 10)) | ++ (++ = 1.5 to 2.5 relative activity over Rd2BB (SEQ ID NO: 10)) |
| 262 (protein, Synthetic Polypeptide sequence of Variant No. 262 of mature Human GLA) LDNGLARTPTMGWLHWERFMCNLDCQEEPDSCISEKLFMEMAELMVSEGWKDAGYEYLCIDDCWMAPQRDSEGRLQADPQRFPHGIRQLANYVHSKGLKFGIYADVGNKTCAGFPGSFGYYDIDAQTFADWGVDLLKFDGCYCDSLENLADGYKHMSLALNRTGRSIVYSCEWPLYMWPFQKPNYTEIRQYCNHWRNFADIDDSWASIKSILDWTSFNQEKIVDVAGPGGWNDPDMLVIGNFGLSWDQQVTQMALWAIMAAPLFMSNDLRHISPQAKALLQDKDVIAINQDPLGKQGYQLRKGDNFEVWERPLSGLAWAVAVINRQEIGGPRSYTIAVASLGKGVACNPACFITQLLPVKRKLGLYEWTSRLKSHVNPTGTVLLQLENTMQMSLKDLL | +++ (+++ = >2.5 relative activity over Rd2BB (SEQ ID NO: 10)) | +++ (+++ = >2.5 relative activity over Rd2BB (SEQ ID NO: 10)) | ++ (++ = 1.5 to 2.5 relative activity over Rd2BB (SEQ ID NO: 10)) | +++ (+++ = >2.5 relative activity over Rd2BB (SEQ ID NO: 10)) |
